The source of these data is patent publication US20030148463A1 (published 2003).

As a reminder, the Kd is the concentration at which binding is half-saturated. In general, koff refers to the rate constant with which the complex falls apart. For orientation: kon means the rate constant with which the complex forms.

Ends that are not written are not given here. Pep Spots Membrane = cellulose membrane (Jerini Biotools) to which the peptides are covalently attached at their C-termini as individual spots

The target of assay [1] is T1, recombinant soluble human 17-1A-antigen (human, UniProt P16422 24-265).
T1 construct: extracellular domain; also called s17-1A; soluble 17-1A-antigen
T1 sequence (looked up): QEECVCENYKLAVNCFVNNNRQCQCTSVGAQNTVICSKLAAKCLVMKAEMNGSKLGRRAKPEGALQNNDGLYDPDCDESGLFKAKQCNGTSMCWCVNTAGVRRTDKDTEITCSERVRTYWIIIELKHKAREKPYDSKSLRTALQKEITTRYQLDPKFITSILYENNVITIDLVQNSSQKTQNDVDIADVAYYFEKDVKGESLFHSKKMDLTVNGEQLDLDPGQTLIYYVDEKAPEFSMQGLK
Kind of assay: SPR (BIACORE 2000), s17-1A immobilized on CM5 chip, 1. set. On the procedure:
Surface plasmon resonance measurement was performed using the BIACORE 2000 device (Biacore AB, Freiburg, Freiburg, Germany). Immobilization of recombinant soluble 17-1A-antigen in each flow cell and analysis of the interaction was carried out with an automatic method in BIACORE 2000. The antigen was covalently coupled to sensor chip CM5 via primary amine groups. After activation of the carboxylated dextran matrix of CM5 sensor chip with a single injection of 80 μl of 0.1 M N-hydroxisuccinimide/0.4 M N-ethyl-N′-(3-dimethylaminopropyl)-carbodiimide (NHS/EDC9) through all four flow cells, flow cells 1,2,3 and 4 were successively included ito the flow path during injection of s17-1A-antigen (60 μg/ml in 10 mM sodium acetate, pH 4.7). Different contact times of 17-1A to the activated surface lead to approximately 2500 response units (RU9 in flow cell 1, […] in flow cell 2, 780 RU in flow cell 3 and 290 RU in flow cell 4). Excess activated esters were blocked by injection of 85 μl 1 M ethanolamine pH 5 over all four flow cells. Binding experiments were performed at 25° C. in buffer of pH 7.4 containing 10 mM Hepes, 150 mM NaCl, 3 mM EDTA and 0.005% surfactant P20. The binding kinetics of antibodies to immobilized recombinant 17-1A were determined by injecting antibody concentrations ranging from 0.5 to 2 μM. The sensor chip was regenerated between each run with 100 mM Glycin, 500 mM NaCl, 0.005% Tween pH3. The association and dissociation rate constants, Kon and Koff were analysed using BIA-evaluation software from Biacore AB as described (Karlsson, (1991) J Immunol Meth 145: 229-240). Two sets of affinity determinations were carried out (1.set: M79, H79, D7.2, Panorex; 2. set: Panorex, HD70); the murine Panorex was also included in set 2 as internal reference.
A general note: In SPR one partner is held on a chip, and binding of the other changes the refractive index at the surface.

The next assay concerns the target T2, 17-1A peptide 8 (human).
T2 construct: also called peptide spot 8
T2 peptide: NYKLAVNCFVNNN-{Pep Spots Membrane}
Briefly: peptide spot membrane, electrotransfer, anti-human secondary antibody, chemoluminescence. The text has this: (§1) Due to a higher degree of crossreactivity of the secondary HRP-conjugated anti-human immunoglobulin antibody with several peptide spots, bound human antibodies H79 and HD70 were transfered from the Pep Spots Membrane to a blotting membrane, respectively, by means of electrotransfer and subsequently detected by said anti human secondary antibody and chemoluminescence. Specific binding of human antibody H79 could be detected mainly at peptide spots 8, 11, 13, 14, 59-60, 77 and 79; however, no binding was detectable in case of human antibody HD70.
(§2) The PepSpots Membrane with the synthesized peptides was shaken for ten minutes in methanol and then washed three times for ten minutes in TBS-buffer pH8. The membrane was then blocked in casein based blocking solution, containing 0.05 g/ml sucrose for one hour and then once shaken in TBS pH8/0.05%Tween 20 (TBS-T).
(§3) Each of the anti-17-1A antibodies was incubated at room temperature together with the membrane for three hours in blocking solution (1 μg antibody/ml). After three washes in TBS-T for ten minutes each, the horse radish peroxidase (HRP)-conjugated secondary antibody (anti mouse/anti human; 1 μg/ml blocking solution) was incubated for two hours at room temperature together with the membrane. Then the membrane was washed for three times in TBS-T for ten minutes each. Detection of bound antibodies was performed directly on the Pep Spots Membrane in case of M79 according to the protocol of the chemoluminescence kit manufacturer (Boehringer). The blot was regenerated after three washes with TBS-T (10 min.) in a solution containing 50 mM Tris-HCl pH 6.7, 100 mM 2-Mercaptoethanol and 2% (w/v) SDS for 30 min at 50° C. and subsequently reused for epitope mapping of the next antibody. Due to the higher degree of unspecific binding of the anti-human immunoglobulin secondary antibody to the polypeptide-spots on the membrane, a fractionated electrotransfer to a second blotting-membrane followed by detection with the anti-human secondary antibody was carried out in case of HD70 and H79 according to Rüdiger, EMBO 16 (1997) 1501-1507. Incubation with the secondary antibody and antibody detection on the blots was performed as described above.

The next assay deals with T3, 17-1A peptide 11 (human, cysteine pairing not given here).
T3 construct: also called peptide spot 11
T3 peptide: NCFVNNNRQCQCT-{Pep Spots Membrane}
Described as above.
Excerpt: as §1, §2, §3

For another assay, the target named is T4, 17-1A peptide 13 (human, cysteine pairing not given here).
T4 construct: also called peptide spot 13
T4 peptide: NNNRQCQCTSVGA-{Pep Spots Membrane}
Described as above.
Excerpt: as §1, §2, §3

Another assay has as its target T5, 17-1A peptide 14 (human, cysteine pairing not given here).
T5 construct: also called peptide spot 14
T5 peptide: NRQCQCTSVGAQN-{Pep Spots Membrane}
The description is as above.
Excerpt: as §1, §2, §3

The target in a further assay is T6, 17-1A peptide 59 (human).
T6 construct: also called peptide spot 59
T6 peptide: ITCSERVRTYWII-{Pep Spots Membrane}
The description is as above.
Excerpt: as §1, §2, §3

The next assay addresses T7, 17-1A peptide 60 (human).
T7 construct: also called peptide spot 60
T7 peptide: CSERVRTYWIIIE-{Pep Spots Membrane}
The description is as above.
Excerpt: as §1, §2, §3

The target in another assay is T8, 17-1A peptide 79 (human).
T8 construct: also called peptide spot 79
T8 peptide: RYQLDPKFITSIL-{Pep Spots Membrane}
Described as above.
Excerpt: as §1, §2, §3

Assay [2] has as its target T1, recombinant soluble human 17-1A-antigen. Kind of assay: ELISA of periplasma Fab preparations on immobilized s17-1A. Here is the method: As previously mentioned in example I, E. coli XL1 Blue transformed with pComb3H containing one light and the Fd-segment of one heavy chain produce soluble Fab in sufficient amounts after excision of the gene III fragment and induction with IPTG. The heavy chain Fd-segment and the light chain are exported into the periplasma where they assemble and form functional Fab-fragments. For better periplasma preparations the cells were grown in SB-medium supplemented with 20 mM MgCl₂ and are redissolved in PBS after harvesting. By four rounds of freezing at −70° C. and thawing at 37° C., the outer membrane of the bacteria was destroyed by temperature shock and the soluble periplasmatic proteins including the Fab fragments were released into the supernatant. After elimination of intact cells and cell-debris by centrifugation, the supernatants containing the Fab-antibody-fragments were collected and used for further examination. […]
Detection of k8-D4.5 and k5.1-D4.5-Fab-fragments bound to immobilized s17-1A anigen was carried out using a polyclonal biotinylated anti-human-kappa light chain antibody (1 μg/ml PBS) detected with horse raddish conjugated Avidine (1 μg/ml PBS). The signal was developed by adding a substrate solution, containing 2,2′Azino-bis(3-Ethylbenz-Thiazoline-6-Sulfonic Acid) and Na-perborate and detected at a wavelength of 405 nm.

For assay [3], the target named is T9, human 17-1A-antigen on cells (Kato gastric cancer cells, 17-1A-transfected CHO cells, colon tissue) (human, UniProt P16422 24-314).
T9 construct: whole, on cells; also called transmembrane 17-1A; CHO/17-1A
T9 sequence (looked up): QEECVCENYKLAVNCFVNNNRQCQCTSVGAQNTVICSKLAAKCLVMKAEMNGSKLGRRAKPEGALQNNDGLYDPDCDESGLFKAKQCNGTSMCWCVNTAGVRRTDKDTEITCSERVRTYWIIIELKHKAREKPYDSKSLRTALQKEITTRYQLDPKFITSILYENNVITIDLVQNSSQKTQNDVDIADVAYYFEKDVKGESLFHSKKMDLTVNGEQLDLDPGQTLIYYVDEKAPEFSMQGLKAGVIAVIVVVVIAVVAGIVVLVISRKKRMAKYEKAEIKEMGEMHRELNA
Briefly: flow cytometry on Kato cells and 17-1A-transfected CHO cells, periplasma preparation. The text has this: The test for binding of the two 17-1A positive human Fab-fragments (k8-D4.5-Fab and k5.1-D4.5-Fab) on Kato-cells (17-1A expressing gastric cancer cell-line), 17-1A transfected CHO-cells (CHO/17-1A) and non-transfected CHO-cells was again carried out with the periplasma preparations. CHO transfected cell-lines were generated by subcloning of a DNA-fragment encoding the complete amino acid sequence of the 17-1A-antigen also known as GA733-2 (Szala, Proc. Natl. Acad. Sci. U.S.A. 87 (1990), 3542-3546), into the eucaryotic expression vector pEF-DHFR (Mack, , Proc. Natl. Acad. Sci. U.S.A. 92 (1995) 7021-7025) according to standard procedures (Sambrook, Molecular Cloning; A Laboratory Manual, Second Edition, Cold Spring Harbour Laboratory Press, Cold Spring Harbour, N.Y. (1989)). The resulting plasmid was linearized with NdeI and transfected into DHFR-deficient CHO-cells for stable expression. The expression of transmembrane 17-1A was increased by stepwise gene amplification induced by subsequent addition of increasing concentrations of the DHFR-inhibitor Methotrexat (MTX) to a final concentration of 500 nM, with the concentration steps in between being 20 nM and 100 nM (Kaufmann, Methods Enzymol. 185 (1990), 537-566). […] Labeled cells were then analyzed by flow cytometry.

Assay [4] concerns the target recombinant soluble human 17-1A-antigen (human) (UniProt P16422). Kind of assay: SPR (BIACORE 2000), s17-1A immobilized on CM5 chip, 1. set.
Assay [5] shares this target. Briefly: SPR (BIACORE 2000), s17-1A immobilized on CM5 chip, 2. set (internal reference).

B1: H79-huIgG1 (VD4.5huIgG1-k8) (antibody, V domains shown)
VH: EVQLLESGGGVVQPGRSLRLSCAASGFTFSSYGMHWVRQAPGKGLEWVAVISYDGSNKYYADSVKGRFTISRDNSKNTLYLQMNSLRAEDTAVYYCAKDMGWGSGWRPYYYYGMDVWGQGTTVTVSS
VL: ELQMTQSPSSLSASVGDRVTITCRTSQSISSYLNWYQQKPGQPPKLLIYWASTRESGVPDRFSGSGSGTDFTLTISSLQPEDSATYYCQQSYDIPYTFGQGTKLEIK
notes: Complete antibody produced in CHO cells; also called H79 human IgG1; human H79
Consider B1, for which, in assay [1], the Kd is 340 nM. The koff in assay [1] worked out at 0.0072 s⁻¹. Further, in [1], the kon was found to be 21000 M⁻¹ s⁻¹. Moreover, the binding result in the assay with 17-1A peptide 8, with 17-1A peptide 11, with 17-1A peptide 13, in the assay with 17-1A peptide 14, with 17-1A peptide 59 and with 17-1A peptide 60 was “binds” in each case. The binding result with 17-1A peptide 79 is “binds”.

B2: k5.1-D4.5-Fab (Fab, V domains shown)
VH: EVQLLESGGGVVQPGRSLRLSCAASGFTFSSYGMHWVRQAPGKGLEWVAVISYDGSNKYYADSVKGRFTISRDNSKNTLYLQMNSLRAEDTAVYYCAKDMGWGSGWRPYYYYGMDVWGQGTTVTVSS
VL: ELQMTQSPSSLSASVGDRVTITCRASQSISSYLNWYQQKPGQPPKLLIYWASTRESGVPDRFSGSESGTNYTLTISSLQPEDFATYFCQQSDSLPITFGQGTRLDIQ
notes: Soluble Fab tested as an E. coli periplasma preparation
In the case of B2, the binding result in [2] and in [3] was “binds” each time.

B3: Panorex (antibody, INN chains, looked up, V domains shown)
VH: QVQLQQSGAELVRPGTSVKVSCKASGYAFTNYLIEWVKQRPGQGLEWIGVINPGSGGTNYNEKFKGKATLTADKSSSTAYMQLSSLTSDDSAVYFCARDGPWFAYWGQGTLVTVSA
VL: NIVMTQSPKSMSMSVGERVTLTCKASENVVTYVSWYQQKPEQSPKLLIYGASNRYTGVPDRFTGSGSATDFTLTISSVQAEDLADYHCGQGYSYPYTFGGGTKLEIK
Take B3: in assay [4], the Kd came to 200 nM, the koff worked out at 0.022 s⁻¹ and the kon stood at 110000 M⁻¹ s⁻¹. In assay [5], the dissociation constant (Kd) amounted to 270 nM, the koff stood at 0.027 s⁻¹ and the kon was 100000 M⁻¹ s⁻¹.
